The values below come from US20230257794A1.

The target in one test is HIV-RSC3. Description: biolayer interferometry (Octet); fragment secreted by L. gasseri SP1. For orientation: BLI is a label-free optical method that tracks binding on a fibre tip over time.
For test [1], the target named is TNFα (UniProt P01375). Description: biolayer interferometry (Octet); fragment secreted by L. gasseri.
The target in test [2] is TNFα (UniProt P01375). Description: biolayer interferometry; fragment secreted by L. rhamnosus GG SP1.

UniProt P01375, sequence (P01375 77-233 limits assumed): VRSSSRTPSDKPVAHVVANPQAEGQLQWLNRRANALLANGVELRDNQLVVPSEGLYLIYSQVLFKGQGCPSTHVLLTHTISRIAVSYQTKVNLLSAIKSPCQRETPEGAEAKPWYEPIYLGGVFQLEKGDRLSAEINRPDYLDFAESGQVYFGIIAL

“VRC01scFv (anti-HIV single chain fragment derived from the broadly neutralizing IgG antibody VRC01)” came in with a Kd with HIV-RSC3 of 10.2 nM. Turning to “ozoralizumab (anti-TNFα NANOBODY / antibody fragment marketed by Ablynx) (VHH)”, the figures for the Kd with TNFα [1] and with TNFα [2] were 0.69 nM and 6.2 nM, respectively.

Usually Kd stands for the equilibrium constant for the complex coming apart. Higher therefore signals weaker binding.
